Source: patent publication US20030004318A1

Key:
[1] = biological target: tumor-associated glycoprotein TAG-72 (human); test: ELISA on TAG-72-coated plates (FIGS. 7 and 8)
[2] = biological target: tumor-associated glycoprotein TAG-72 (human); test: TAG-72-coated plate assay with 125I goat anti-human IgG probe, Scatchard analysis; mean of 8 analyses

humanized CC49 antibody CC49 HuVH/HuVK (ATCC CRL-12209)
fold less binding than the chimeric MuVH/MuVK antibody [1]: 2 fold
Ka [2]: 4.27e+09 M⁻¹
